Laboratory results from patent US10047131B2, “Peptides and combination of peptides for use in immunotherapy against ovarian cancer and other cancers” (immatics biotechnologies GmbH, priority 2015, dated 2018).

Target: HLA-A*02:01 (Homo sapiens, UniProt P04439, D140Y/D185E/D98H/E176V/E277Q/G131W/G231S/I119V/I121R/I166T/I218V/L300P/L318F/N151K/N90K/P208A/P217A/Q86G/Q94H/R138H/R169H/T345S)
Assay: MHC binding assay (UV-ligand exchange, ELISA of exchange yield)
Settings: binding to HLA-A*02:01, UV-ligand exchange
Source text: Candidate peptides for T cell based therapies according to the present invention were further tested for their MHC binding capacity (affinity). The individual peptide-MHC complexes were produced by UV-ligand exchange, where a UV-sensitive peptide is cleaved upon UV-irradiation, and exchanged with the peptide of interest as analyzed. Only peptide candidates that can effectively bind and stabilize the peptide-receptive MHC molecules prevent dissociation of the MHC complexes. To determine the yield of the exchange reaction, an ELISA was performed based on the detection of the light chain (p2m) of stabilized MHC complexes. The assay was performed as generally described in Rodenko et al. (Rodenko et al., 2006).
96 well MAXISorp plates (NUNC) were coated over night with 2 μg/ml streptavidin in PBS at room temperature, washed 4× and blocked for 1 h at 37° C. in 2% BSA containing blocking buffer. […] Peptide-MHC monomers of the UV-exchange reaction were diluted 100 fold in blocking buffer. Samples were incubated for 1h at 37° C., washed four times, incubated with 2 μg/ml HRP conjugated anti-β2m for 1h at 37° C., washed again and detected with TMB solution that is stopped with […]. Absorption was measured at 450 nm. Candidate peptides that show a high exchange yield (preferably higher than 50%, most preferred higher than 75%) are generally preferred for a generation and production of antibodies or fragments thereof, and/or T cell receptors or fragments thereof, as they show sufficient avidity to the MHC molecules and prevent dissociation of the MHC complexes.

Row | Peptide exchange (MHC class I binding score, peptide exchange yield) | Substance
1 | “++” (≥20% = ++) | 405 (ALYDVFLEV; listed as Homo sapiens) [compound 405]
2 | “+++” (≥50 = +++) | 506 (KLLGKVETA; listed as Homo sapiens) [compound 506]
3 | “++++” (≥75% = ++++) | 68 (SLMELPRGLFL; listed as Homo sapiens) [compound 68]
4 | “+++” (≥50 = +++) | 614 (LLLPDQPPYHL; listed as Homo sapiens) [compound 614]
5 | “+++” (≥50 = +++) | 564 (TVTNAVVTV; listed as Homo sapiens) [compound 564]
6 | “+++” (≥50 = +++) | 103 (TLAEEVVAL; listed as Homo sapiens) [compound 103]
7 | “+++” (≥50 = +++) | 437 (SMAPGLVIQAV; listed as Homo sapiens) [compound 437]
8 | “++” (≥20% = ++) | 279 (ALWGGTQPLL; listed as Homo sapiens) [compound 279]
9 | “+++” (≥50 = +++) | 612 (YLYNEGLSV; listed as Homo sapiens) [compound 612]
10 | “+++” (≥50 = +++) | 476 (ALMERTGYSMV; listed as Homo sapiens) [compound 476]
11 | “+++” (≥50 = +++) | 202 (ALLDQQGSRWTL; listed as Homo sapiens) [compound 202]
12 | “+++” (≥50 = +++) | 147 (SLLEAVSFL; listed as Homo sapiens) [compound 147]
13 | “+++” (≥50 = +++) | 324 (FLYDEIEAEV; listed as Homo sapiens) [compound 324]
14 | “++++” (≥75% = ++++) | 61 (FLQGYQLHL; listed as Homo sapiens) [compound 61]
15 | “++” (≥20% = ++) | 228 (AMQEYIAVV; listed as Homo sapiens) [compound 228]
16 | “+++” (≥50 = +++) | 366 (RLLDMGETDLML; listed as Homo sapiens) [compound 366]
17 | “+++” (≥50 = +++) | 85 (KMSELRVTL; listed as Homo sapiens) [compound 85]
18 | “++++” (≥75% = ++++) | 62 (VLLDVSAGQLLM; listed as Homo sapiens) [compound 62]
19 | “+++” (≥50 = +++) | 563 (WLLPYNGVTV; listed as Homo sapiens) [compound 563]
20 | “++” (≥20% = ++) | 63 (YLLPSGGSVTL; listed as Homo sapiens) [compound 63]
21 | “+++” (≥50 = +++) | 352 (SLLELLHIYV; listed as Homo sapiens) [compound 352]
22 | “++” (≥20% = ++) | 499 (KIFDIDEAEEGV; listed as Homo sapiens) [compound 499]
23 | “+++” (≥50 = +++) | 597 (KLLEGQVIQL; listed as Homo sapiens) [compound 597]
24 | “+++” (≥50 = +++) | 79 (SLFIGEKAVLL; listed as Homo sapiens) [compound 79]
25 | “++” (≥20% = ++) | 115 (AIAGAGILYGV; listed as Homo sapiens) [compound 115]
26 | “+++” (≥50 = +++) | 569 (KLVDRTWTL; listed as Homo sapiens) [compound 569]
27 | “+++” (≥50 = +++) | 30 (LILDWVPYI; listed as Homo sapiens) [compound 30]
28 | “++” (≥20% = ++) | 133 (KVLSNIHTV; listed as Homo sapiens) [compound 133]
